From the supplement of paper PMC10598134
± gives the standard deviation.

Assay: collision cross section of modified peptide (TIMS, N2, iRT-aligned); higher = larger / more extended gas-phase ion
Outline: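 Collision cross section values rest on the Mason-Schamp equation applied to calibrated, run-aligned mobility data from synthetic peptides. Mobility (1/K0) was calibrated with three reference ions and aligned per run to the median iRT peptide deviation, and 1–3 technical replicates of the most abundant feature per charge state were averaged. Data came from a timsTOF Pro/HT in dda-PASEF mode (nitrogen, ~2.4 mbar) after a 120-min nanoflow C18 gradient at 60 °C.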

[1] = charge state: 2, modification: Malonyl
[2] = charge state: 2, modification: Dimethyl (K)
[3] = charge state: 3, modification: Dimethyl (K)
[4] = charge state: 2, modification: Methyl (K)
[5] = charge state: 3, modification: Methyl (K)
[6] = charge state: 2, modification: Acetyl (K)
[7] = charge state: 3, modification: Acetyl (K)
[8] = charge state: 2, modification: Nitro (Y)
[9] = charge state: 2, modification: hydroxyisobutyryl
[10] = charge state: 2, modification: Formyl
[11] = charge state: 3, modification: Formyl
[12] = charge state: 2, modification: Citrullination (R)
[13] = charge state: 3, modification: Citrullination (R)
[14] = charge state: 2, modification: Propionyl
[15] = charge state: 2, modification: Crotonyl
[16] = charge state: 2, modification: Biotin
[17] = charge state: 3, modification: Biotin
[18] = charge state: 2, modification: Succinyl
[19] = charge state: 3, modification: Succinyl
[20] = charge state: 2, modification: Glutarylation
[21] = charge state: 3, modification: Glutarylation
[22] = charge state: 3, modification: Crotonyl
[23] = charge state: 2, modification: Trimethyl (K)
[24] = charge state: 3, modification: Trimethyl (K)
[25] = charge state: 2, modification: Butyryl
[26] = charge state: 3, modification: Butyryl
[27] = charge state: 2, modification: Phospho (Y)
[28] = charge state: 2, modification: GlyGly (K)

SKLLFSNTAAQK [_SK(Malonyl)LLFSNTAAQK_]
collision cross section [1]: 394.73 ± 0.61 Å²

LGVPGLPGYPGRQGPK [_LGVPGLP(Hydroxyproline)GYPGRQGPK_]
collision cross section (charge state: 2, modification: Hydroxyproline): 416.79 ± 1.1 Å² | collision cross section (charge state: 3, modification: Hydroxyproline): 499.55 ± 1.2 Å²

VLTANSNPSSPSAAKR [_VLTANSNPSSPSAAK(Dimethyl (K))R_]
collision cross section [2]: 441.07 ± 1.1 Å² | collision cross section [3]: 518.06 ± 0.76 Å²

TTEETSKPK [_TTEETSK(Methyl (K))PK_]
collision cross section [4]: 342.29 ± 0.79 Å² | collision cross section [5]: 431.66 Å²

LLIVSTTPYSEKDTK [_LLIVSTTPYSEK(Acetyl (K))DTK_]
collision cross section [6]: 449.39 ± 2.3 Å² | collision cross section [7]: 486.31 ± 3 Å²

LDYSDFQIVK [_LDY(Nitro (Y))SDFQIVK_]
collision cross section [8]: 369.5 ± 0.55 Å²

VNALKNLQVK [_VNALK(hydroxyisobutyryl)NLQVK_]
collision cross section [9]: 374.85 ± 0.8 Å²

IVSGKDYNVTANSK [_IVSGK(Formyl)DYNVTANSK_]
collision cross section [10]: 405.86 ± 0.56 Å²

GTISAPGKVVTAAAQAK [_GTISAPGK(Formyl)VVTAAAQAK_]
collision cross section [10]: 440.5 ± 0.16 Å² | collision cross section [11]: 511.74 ± 2.1 Å²

HLRGHGPQPPLR [_HLR(Citrullination (R))GHGPQPPLR_]
collision cross section [12]: 393.67 ± 4.3 Å² | collision cross section [13]: 482.78 ± 1.8 Å²

VGIDTPDIDIHGPEGKLK [_VGIDTPDIDIHGPEGK(Acetyl (K))LK_]
collision cross section [6]: 490.05 Å² | collision cross section [7]: 536.56 ± 1.2 Å²

GTITVSAQELKDNR [_GTITVSAQELK(Propionyl)DNR_]
collision cross section [14]: 415.55 Å²

SGFGKFER [_SGFGK(Crotonyl)FER_]
collision cross section [15]: 337.57 ± 1.3 Å²

LSSETYSQAK [_LSSETY(Nitro (Y))SQAK_]
collision cross section [8]: 352.74 ± 0.47 Å²

IQTKAGEATVK [_IQTK(Acetyl (K))AGEATVK_]
collision cross section [6]: 364.34 ± 0.62 Å²

SLEEEGAAHSGKR [_SLEEEGAAHSGK(Acetyl (K))R_]
collision cross section [6]: 412.49 ± 2.4 Å² | collision cross section [7]: 476.34 ± 2.4 Å²

ASPPLFQSR [_ASPPLFQS(HexNAc (ST))R_]
collision cross section (charge state: 2, modification: HexNAc (ST)): 363.62 ± 0.64 Å²

KYEEIDNAPEER [_K(Biotin)YEEIDNAPEER_]
collision cross section [16]: 430.04 ± 3.1 Å² | collision cross section [17]: 521.46 ± 0.34 Å²

LGNDFHTNKR [_LGNDFHTNK(Succinyl)R_]
collision cross section [18]: 377.52 ± 0.24 Å² | collision cross section [19]: 436.15 ± 2.9 Å²

VDIDVPDVNIEGPDAKLK [_VDIDVPDVNIEGPDAK(Gluratylation)LK_]
collision cross section [20]: 479.85 ± 0.49 Å² | collision cross section [21]: 509.66 ± 1.3 Å²

VGTASVLQPVKK [_VGTASVLQPVK(Biotin)K_]
collision cross section [16]: 406.39 ± 1.1 Å²

VNIGQGSHPQKVK [_VNIGQGSHPQK(Crotonyl)VK_]
collision cross section [15]: 430.6 ± 0.84 Å² | collision cross section [22]: 487.14 ± 1.3 Å²

LTEKELAEAASK [_LTEK(Formyl)ELAEAASK_]
collision cross section [10]: 382.92 ± 0.9 Å²

LQDVSGQLSSSKK [_LQDVSGQLSSSK(Acetyl (K))K_]
collision cross section [6]: 396.87 ± 1.3 Å² | collision cross section [7]: 461.64 ± 3.7 Å²

LQAAYAGDKADDIQK [_LQAAYAGDK(Crotonyl)ADDIQK_]
collision cross section [15]: 436.53 ± 0.29 Å² | collision cross section [22]: 487.02 ± 2.8 Å²

DFAFYNPRLQGK [_DFAFYNPR(Citrullination (R))LQGK_]
collision cross section [12]: 400.16 ± 0.22 Å² | collision cross section [13]: 473.76 Å²

VNIGQGSHPQKVK [_VNIGQGSHPQK(Gluratylation)VK_]
collision cross section [20]: 424.75 ± 1.8 Å² | collision cross section [21]: 494.72 ± 8.3 Å²

VFIGNLNTLVVKKK [_VFIGNLNTLVVK(Acetyl (K))KK_]
collision cross section [7]: 507.56 ± 1 Å²

SITHSTVGSKGEK [_SITHSTVGSK(Formyl)GEK_]
collision cross section [10]: 387.87 ± 1.4 Å² | collision cross section [11]: 435.39 ± 3 Å²

LAEEENKAK [_LAEEENK(Acetyl (K))AK_]
collision cross section [6]: 348.53 ± 3.9 Å²

LQDVSGQLSSSKK [_LQDVSGQLSSSK(Propionyl)K_]
collision cross section [14]: 399.52 ± 0.65 Å² | collision cross section (charge state: 3, modification: Propionyl): 471.63 Å²

LLEEEDSKLK [_LLEEEDSK(Trimethyl (K))LK_]
collision cross section [23]: 388.34 ± 1.1 Å² | collision cross section [24]: 441.46 ± 2.4 Å²

HELQANCYEEVKDR [_HELQANCYEEVK(Gluratylation)DR_]
collision cross section [21]: 487.76 ± 1.7 Å²

TLDEILQEKK [_TLDEILQEK(Butyryl)K_]
collision cross section [25]: 383.05 ± 1.3 Å² | collision cross section [26]: 449.71 ± 2 Å²

SYVDTGGVSR [_SY(Phospho (Y))VDTGGVSR_]
collision cross section [27]: 347.56 ± 0.066 Å²

SLFFGGKGAPLQR [_SLFFGGK(Crotonyl)GAPLQR_]
collision cross section [15]: 404.03 ± 0.35 Å²

ALLQAKASGK [_ALLQAK(GlyGly (K))ASGK_]
collision cross section [28]: 355.61 ± 0.57 Å²

IGNSYFKEEK [_IGNSYFK(Butyryl)EEK_]
collision cross section [25]: 377.97 ± 0.72 Å²

LTEKELAEAASK [_LTEK(Dimethyl (K))ELAEAASK_]
collision cross section [2]: 397.3 ± 0.55 Å² | collision cross section [3]: 456.37 ± 5.1 Å²

SITHSTVGSKGEK [_SITHSTVGSK(Gluratylation)GEK_]
collision cross section [20]: 400.44 ± 2.1 Å² | collision cross section [21]: 444.81 ± 2 Å²

APEYLHR [_APEY(Nitro (Y))LHR_]
collision cross section [8]: 321.02 ± 1.2 Å²

GFALVGVGSEASSKK [_GFALVGVGSEASSK(Crotonyl)K_]
collision cross section [15]: 448.38 ± 0.94 Å² | collision cross section [22]: 499.08 ± 1.9 Å²

GEVGAGAGPGAQAGPSAKR [_GEVGAGAGPGAQAGPSAK(Formyl)R_]
collision cross section [10]: 415.62 ± 0.18 Å² | collision cross section [11]: 470.58 ± 2.9 Å²

DAEAAEATAEGALKAEK [_DAEAAEATAEGALK(Formyl)AEK_]
collision cross section [10]: 428.82 ± 0.71 Å² | collision cross section [11]: 534.4 ± 0.57 Å²

SLKLNTAEDAK [_SLK(Malonyl)LNTAEDAK_]
collision cross section [1]: 374.06 ± 0.0012 Å²

DESFLGKLGGTLAR [_DESFLGK(Gluratylation)LGGTLAR_]
collision cross section [20]: 418.47 ± 2.1 Å² | collision cross section [21]: 488.45 ± 2.4 Å²

IPQEKCILQTDVK [_IPQEK(Malonyl)CILQTDVK_]
collision cross section [1]: 431.57 Å²

INNFSADIKDSK [_INNFSADIK(Gluratylation)DSK_]
collision cross section [20]: 404.4 ± 4.7 Å² | collision cross section [21]: 469.07 Å²

DTGEKLTVAENEAETK [_DTGEK(Crotonyl)LTVAENEAETK_]
collision cross section [15]: 449.13 ± 0.83 Å²

VETTVTSLKTK [_VETTVTSLK(Trimethyl (K))TK_]
collision cross section [23]: 391.95 ± 0.62 Å² | collision cross section [24]: 455.28 ± 8.1 Å²

FSAYIKNSNPALNDNLEK [_FSAYIK(Biotin)NSNPALNDNLEK_]
collision cross section [16]: 499.7 ± 0.61 Å² | collision cross section [17]: 526.24 Å²

IQQELQTAKK [_IQQELQTAK(Biotin)K_]
collision cross section [16]: 397.29 ± 2.2 Å² | collision cross section [17]: 468.38 ± 0.34 Å²

AGPNASIISLKSDK [_AGPNASIISLK(Biotin)SDK_]
collision cross section [16]: 431.71 ± 1.7 Å² | collision cross section [17]: 469.41 Å²

DYSAPVNFISAGLKK [_DYSAPVNFISAGLK(Butyryl)K_]
collision cross section [25]: 437.47 ± 5.8 Å² | collision cross section [26]: 532.64 Å²

SDDESSQKDIK [_SDDESSQK(hydroxyisobutyryl)DIK_]
collision cross section [9]: 383.53 ± 0.55 Å²

GEVGAGAGPGAQAGPSAKR [_GEVGAGAGPGAQAGPSAK(Dimethyl (K))R_]
collision cross section [2]: 422.35 ± 0.53 Å² | collision cross section [3]: 490.58 ± 1.6 Å²

DDSNLYINVK [_DDSNLY(Nitro (Y))INVK_]
collision cross section [8]: 367.46 ± 0.55 Å²

IQQELQTAKK [_IQQELQTAK(Methyl (K))K_]
collision cross section [4]: 376.86 ± 3.5 Å² | collision cross section [5]: 430.18 ± 6.1 Å²

DLSTVEALQNLKNLK [_DLSTVEALQNLK(Succinyl)NLK_]
collision cross section [18]: 483.86 ± 0.78 Å² | collision cross section [19]: 537.21 Å²

ANLEKAQAELVGTADEATR [_ANLEK(Trimethyl (K))AQAELVGTADEATR_]
collision cross section [24]: 528.43 ± 0.88 Å²

DTPTSAGPNSFNKGK [_DTPTSAGPNSFNK(Biotin)GK_]
collision cross section [16]: 428.73 ± 1.1 Å² | collision cross section [17]: 478.46 Å²

DASTLQSQKAEGTGDAK [_DASTLQSQK(Biotin)AEGTGDAK_]
collision cross section [16]: 450.36 ± 0.63 Å² | collision cross section [17]: 520.24 ± 1.3 Å²

GFALVGVGSEASSKK [_GFALVGVGSEASSK(GlyGly (K))K_]
collision cross section [28]: 452.76 ± 1.4 Å² | collision cross section (charge state: 3, modification: GlyGly (K)): 507.31 ± 14 Å²

LGNDFHTNKR [_LGNDFHTNK(Butyryl)R_]
collision cross section [25]: 377.65 ± 0.22 Å² | collision cross section [26]: 446.3 ± 2.8 Å²

SGKFTQQDIDEAK [_SGK(Acetyl (K))FTQQDIDEAK_]
collision cross section [6]: 412.93 ± 2.8 Å²

LLFSNTAAQKLR [_LLFSNTAAQK(Gluratylation)LR_]
collision cross section [20]: 406.85 ± 0.6 Å² | collision cross section [21]: 487.13 ± 1.7 Å²

FYTEDSPGLK [_FY(Phospho (Y))TEDSPGLK_]
collision cross section [27]: 366.92 ± 0.064 Å²
